Experimental data taken from the DeepSol protein solubility set.

Assay: soluble on expression in E. coli; label from the status in PepcDB or PDB records

Sequence	soluble on expression in E. coli
MGSDKIHHHHHHMKAILIDDDQPTLFILNKMLAKIPRVEIVGEFLNAGDAYHFLKHNPVELAFVDIKMPGESGLDFAWRSLAEFPDLYVVFLTAYKDYAVEAFEVQAFDYIVKPIQQERLERTVSRVLQRKAAGISSRNTVEQAKVLFVYCLGGLDLRNTNDDFVMISSSKGQELFAYLLVHRERLTSKWRIMEDVFQGMSPQNAETYLNTTVYKLRKVLEQYGKRSAIVVASESYVMEIKDFYIDFIEFENKVRTLPSITEANLQEAIQTFHLFAGELFGDKDYQWSLAEKERLGDIYCSFAKKLGRYLLENQNSALALQVFKKLVAINELDEESHCFLLQVYAAQNDLPSLIRHYDRYVQLLQRELAISPSNRTAQLFLSLKKSLL	not soluble
MGSDKIHHHHHHMKAKHTDLEKLEQLYKESGNQLVVLYGRRGCQKEELIKEFCDGKKFFYYRCRQASPEHQLEMMGEEISRQYKVSLSRQTYEEYFARIKSGDPSKLVVIIDEAQFVAKRDTSFMEAVAKLKKHKLYPGPVLIILATSSTVWATQEASEQFKGAEMKLESLNFLEVVRHFESLPVAEIVRIYGAIGGVPAYLDKWDAAKSFKENICRLVLTPSGALYGEADAVISSELRELSAYSTILAAIARGENKLNDIFHATGFSRAKISVYLKNLATFNIVEKVVSFETGGWENAKKGVYQIKDTFVNFWFKFVYPNMSNLYLLSPEEFYDTYIEKELDAYLERYFREVCTEYLLILNQMGQLPFTIKRVGTWIGKTGRIDIVAQSEDRRSIIGFCNWDKPMMTMDMCENMAMAMDQARLTSDDYYLFSATDFEPALQSYVVRDPRFKLINMNEL	not soluble
MGSDKIHHHHHHMKAQSALSVKEANFKAMTTFIYTQGSATKQMFEHELGLSLPTITQNLRAMEADGLIVKGEMQKSTGGRKAQIYEFAAHSSVAIGVRIQTTRITAIAIDLNGKSVATRQRTLPYRNNDAYYQRMNDIINGFAQELAKQGSTVLGVAFCMQGIVSADGQSITFGKIMNNTGLKLSELSHGLNYPSLMIHDSDASAMAELWFDHNLKDAVCIYLERRPGGAVIVDGSLYQGPNQCNGSIEHMTLIPGGNTCYCGQQGCMDTYCSPETLMEDGESLPGFFSVLEQGEQEHRKRFSQWLDYVALAVTNIRSVLAGDVIISGEAAQYLDDDDMAGLRERVVEHTPFGTTDFTLRKGMALDHQDIIGAALRFVEPYVRELCDM	not soluble
MGSDKIHHHHHHMKDVQNEKDPRMVPLKKVGIKDLHWPLKVILKEDGYQSTVAQISCSVDLHREKRGIHMSRFIEVLNKLEVITPQIFEEILDDLIEIMEAKRAHLEIHFPYFIWKESPVSRKKSPLKVDCFVEAEKEKNFSFKIGVRTPVHTLCPCSKEISDYGAHNQRAFVEITVKTRKFIWFEDLVEIAEKNASSPLYTLLKRPDEKFVTEKAYENPRFVEDVARDVALELEKDPRITWYRVYVESMESIHNHNAFACVEKGDFVLEG	not soluble
MGSDKIHHHHHHMKESGNFEFDDVQGLLRFGYGKLADTCFMLLKIADASAARQWLSTAPVSSAIAIHPPPDTALQIAFSVQGLRALGIDESIIDGFSDEFVHGMTRNENCSRRLGDIGHNAPKYWKWGEGADVPHILLLLYARKGGLDAWKATVEGEYFSQAFQLLQYLPTSDMGRTDPFGFEDGISQPAIDWADRHDTDSHANDRYTNLLAAGEMVLGYPNEYGQYTARPLIDLQKDRFAVNLPDAKDDPARKDFGRNGTYLVLRQLEQNVPGFWQFLDKVSDSIPEKRERLAASMVGRERNGTPLIAEHIPGILPKDHGNHFTYDLDPKGNHCPVSAHVRRANPRTGDLPTAVTGTGAIALINRLVKILGFGQKPEEDLIASSRFHRLLRRGRSYGPVLAPGDAVKPDAPAAERGLQFICLVANIGRQFEFVQNAWIVNGKFGGLQEEPDPLLGNREPMINGNSTDHFNRPTSSGSMQKTCHLPQFTTVLGGGYFFMPGLRALKYISALPANGNGGSS	not soluble
MGSDKIHHHHHHMKEVKDFYDKWEPEDFPNYIKLLMNFADELIFEEISLLLKKFENKKDFLVLDCGCGFGAFYNLTKDFNTIYLDISLNLLKRFKLKERKICANILHLPFKDNTFDLVLCINVLEHVNYLKALNEIRRILKNKGKLIVVVVNKDSLIKEEIFNDFKIFHKPLSIKDFEIDGFKIVYSNSVYFLPSIFKISPPIILSKIIEYWKPVDKKLSKIFKNKGQFLIIEMVKE	not soluble
MGSDKIHHHHHHMKGFITNIQRMSIHDGPGIRSTIFLKGCNLRCKWCHNPETWSMKPQLQYIEDKCIHCFSCITVCEYEVLFIDSNRLSIHRERCTDCGKCTERCTSGALSWIGKEVDSSDIIHEILQDLIYYQKSGGGITLSGGEPLQQKDFALDILQKCREHRIHTAVETNLLTDVNTLEAFLPWVDLWMCDFKMADDTLHRKWTGHSNVPIIKNLEFLAKQAVPLTIRTPVIPNVNDSEEAIESICRFIRQLPNQPAYELLGFHSLGFVKFENLGMKNPLSNSAFLKKGQLQKLKEILIRYNLNNNKK	not soluble
MGSDKIHHHHHHMKGMDIMNSAMILEISWFQEHGIMRRAVNRGLARKSSHPSRIGIDEKYYGKHHRYITLVFNHDDHSVEFISLDRKQESLDLYYRSIGEEASGSIEAAPMDMWDPFIVSTKSNVTDAESKIVFDRFHVMKHMNMALDDVRWMESRMAEYKEMFRKTRCLWLYSPENLPDKYGERYEILKESDLKTARVYAIKENLRNLWNCSGEDEARSF	not soluble
MGSDKIHHHHHHMKIAFDAKRITHNATGLGNYSRFVVNSLSASFPEHTYQLYTPGKGKEALRKRIEERPSVSFHYPEGRFDKLFPSLWRTSGLTATLRKEHVDLFHGLSNEIPMNLKQNGIPAVVTIHDLIFLRYPQLYKPIDRSIYTYKFKQACLRSDKIIAISRQTMRDIRDFFHIPESKIEVVYQGCDPIFGQAVQEDVKSSVREKYQINGPYILYVGSIEERKNLLLLVKALKKLKEDISVIAIGKHTPYTDTVETYIRENNLSGRVHILTHIPFNELAAFYQMATLFVYPSFFEGFGIPILEAQLAGIPVIAATGSCLEEAGGPSALYTDPRNEQELRGLIESVLNEPKLAESMRSGGRENIRRFMPDVLAAHFMRVYENISRS	not soluble
MGSDKIHHHHHHMKIAIASGKGGTGKTTVAVNFAQVLAAAGQEVTLLDCDVEEPNVHLFLHPEFDSVSAVETTIPQVDEEKCTGCRVCAEVCEYHALAVLGKNVLVFPELCHACGACVRFCPEEAIVEIPREIGTIRKGRKGKIRLIEGRLNVGEVMSPAVIERVKKIGLDGKIGIIDAPPGTSCPVIAAVRDTDGVLLVTEPTPFGLYDLKLAVGMVRLLGIPCAVAINRSDLGEKELWRYCSDERIPIILEIPNDRRIAEAYSRGRTIIEELPEYREKFLQGWQALLESCSIA	not soluble
MGSDKIHHHHHHMKIAQVAPLWERVPPPSYGGIELVVSHLTNELVRRGHEVTLFASGDSQTLAHLETVCPRALRLDKNVQDYAAYETLELSQVYQNATEFDIIHSHLGISALPLANLVKTPTVHTLHGHFTKDNQNVFSHHHQQPYVSISNAQRQIHLNYIKTVYNGIEPKDYPFISQPKEPPYLAFLGRFSPEKGPHQAIAIAKQSGWRLKMAGKVDIVDAKFFEQEILPHIDGQQIEYLGEINHTEKAELLGNAAATLFPINWQEPFGLVMIESMATGTPVIGMNLGSVPEVIDQGKTGFICRTYEEMIQMIAVTLELDRRDCRESVVNKFSVSHMVDGYEAVYQQIIKDRVNLNGYIHTAKIRF	not soluble
MGSDKIHHHHHHMKIDMRNISKSFGTNKVLEKIDLELQSGQIHALMGENGAGKSTLMNILTGLFPASTGTIYIDGEERTFSNPQEAEEFGISFIHQEMNTWPEMTVLENLFLGREIKTTFGLLNQKLMRQKALETFKRLGVTIPLDIPIGNLSVGQQQMIEIAKSLLNQLSILVMDEPTAALTDRETENLFRVIRGLKQEGVGVVYISHRMEEIFKITDFVTVMRDGVIVDTKETSLTNSDELVKKMVGRKLEDYYPEKHSEIGPVAFEVSNLCGDNFEDVSFYVRKGEILGFSGLMGAGRTEVMRTIFGIDKKKSGKVKIDDQEITITTPSQAIKQGIGFLTENRKDEGLILDFNIKDNMTLPSTKDFSKHGFFDEKTSTTFVQQLINRLYIKSGRPDLEVGNLSGGNQQKVVLAKWIGIAPKVLILDEPTRGVDVGAKREIYQLMNELADRGVPIVMVSSDLPEILGVSDRIMVMHEGRISGELSRKEADQEKVMQLATGGK	not soluble
MGSDKIHHHHHHMKIEINPVSRIEGHAKVTIFLDSSGKVENAFFQATEFRGYEKILSGLPMEEVPRVVSTICGICRAIHFTAALKAADQVFGVEASDAAKIVREMLLCAHFIEDHTLSLLALALPDFLSPEERNIFGVIRNLGELGRELLRKRGYAVRILQILGGRNIHPVTALPGGWAKAPTDEELGLIERYSRELLDLGYRMVEVLEAALDMGDGLELRAATLGTEKKGLVNLYDGEQVVKDEEGKEVLRFSGKEYADIITEKSLSWSYSKLTEIKPLGEKLYVVGPLARLKTAELTPKASEIVKTYGVSNNLLYNHFARAVEIIYAAERLLELSQSYRGGRIQNEPQKVAGEGVGIVEAPRGTLIHHYWTDEKGIVRGSNLIVATTHNVRAINHVVGKVAERASDTRNLAEKVEVAIRAFDPCMACATHAVNGVIPIEIQIFRDGELEEVYRNYEESCCGSGQSTHS	not soluble
MGSDKIHHHHHHMKIIKLRNNSPEFNYKMIVLARESRGIGQRELATLVETDQGNLSRIEKGAQTPVKDMIERISKALDYPVSFFRLQHSVYDFSKSYYRRKLKMPKKEIELSEAKINISKINIETLIRAVELPEPNYPTFDLSKDLSASACAIQLRKYWKLPHGRVENFTKVLEDNGVLVANIDFAGIEVDGHAILTENNLPIIFINKNITADRYRLTLAHELGHLCLHVGREIAEDRDVEQEAFMFAAELLTPEVEIAPDLCEVSIEKLKELKKYWKVSMGSLLKRAHVLKGVSDNQYKYLWQQMGNMGYKTVEPKELEFEKEKPKLLKEIIDAHLEELQYSEDELSELLGLKIQEFAKSYAPARPRLRVSKGKAR	not soluble
MGSDKIHHHHHHMKILVAMSGGVDSTVTAYKLKNLGHEVIGCYMKLHGKPNYHEENIKKVEKVANFLQIPYHILDLQEDFKNKVYMPFVDTYKEGKTPNPCALCNRFIKLGKLLEFAKSLGCEKLATGHYARLENNLIKTAVDESKDQSYFLASADKEALKYLIFPLGEMKKEDVKKFASTIEVLKSFATQKESSEICFVEDTYVQVLDQFMDTKIPGEVLDSSGKVVGKHEGYMHYTIGKRRGFEVRGAHEPHFVLKINPKQNQIIVGTKEELKISEFNLKNINLFIDAKELDCEVKIRYRSKSTPCKVEIYEDKSAKIILKDPVYGLASGQMAVFYDHDKVIASGFIE	not soluble
MGSDKIHHHHHHMKKAIVLCAGKGTRLRPLTFTTAKHLIPIANKPILFYSLENIARAGIEEVGIVVSPHNAEEFKSIVGTGENFGLRISYIIQEEPKGLAHAVWVSREFLGDEDFMMYLGDNLILEDLGKFVKDFENSDYAASILLSPVKDPTRFGVAVMEGDRVIKVVEKPKTPPSNLAIVGLYLFRNKIFEGIKNIKPSWRGELEITDAIEYLIEKGEKVRGYIVYGWWKDTGKPEDLLEANRKILMETTEELLGEMDDKSSIQGPVRIGKASKIVNSVIRGPAVIGENCFIKNSYVGPYSSIGNRVILEDCEVENSIVMDECSITGVEKRIDSSILGKGVSVKGSQKRPASLNLILGNMSRVEL	not soluble
MGSDKIHHHHHHMKKILVVGDFIKGSGLTNYLLNIYSSLPKDEFLISCVSYSGQHNIDTVLEEKKWEKFEVTPITQDIIKHFKDWNNFFKLHGNDFDEIHFNYSAPWNFIAILLAKLKSKAKIIVQSHNNYYSKQPKGLQKKVLAVLNVTGRTVIGRCSDIRLAVSEDSAQWMFGKRNVQILKNGINLKDFEYQPGPREELRKSIGINKGKKIIGFVGTLEKRKNPYFAIECLKKLNKEYILLMFGQGVLKKDLEKKIMDEGLEHRIKLMGVVDNLNEWYSVFDLFLFPSLTEGFGFALLEAQANGLKCFSSTSIPKEAKITNDVTSLNLSEINKWIDEIEKTSINDRERRSKQNCRIIEKKGFSIENTSKQFKRILLGDLS	not soluble
